Test results published in patent US20030129296A1.

Tests used:
[1] = biological target: Cy3-labeled mouse monoclonal antibody (Amersham) (mouse); assay: fluorescence imaging of 0.8 µm capture particles on epoxy-hydrogel slides; dilution series of the Cy3-labeled target, overnight incubation
[2] = biological target: mouse IgG labeled with Alexa Fluor 488 (Molecular Probes, Inc., A-11243 anti-biotin, mouse monoclonal 2F5, Alexa Fluor 488 conjugate) (mouse); assay: fluorescence imaging of film-immobilized capture particles; labeled target at 1 nM, 2 h
[3] = biological target: mouse IgG labeled with Alexa Fluor 488 (Molecular Probes, Inc., A-11243 anti-biotin, mouse monoclonal 2F5, Alexa Fluor 488 conjugate) (mouse); assay: fluorescence imaging of film-immobilized capture particles; labeled target at 10 nM, 2 h
[4] = biological target: mouse IgG labeled with Alexa Fluor 488 (Molecular Probes, Inc., A-11243 anti-biotin, mouse monoclonal 2F5, Alexa Fluor 488 conjugate) (mouse); assay: fluorescence imaging of film-immobilized capture particles; labeled target at 100 nM, 2 h
[5] = biological target: mouse IgG labeled with Alexa Fluor 488 (Molecular Probes, Inc., A-11243 anti-biotin, mouse monoclonal 2F5, Alexa Fluor 488 conjugate) (mouse); assay: ratio of particle fluorescence to film background fluorescence; labeled target at 1 nM, 2 h
[6] = biological target: mouse IgG labeled with Alexa Fluor 488 (Molecular Probes, Inc., A-11243 anti-biotin, mouse monoclonal 2F5, Alexa Fluor 488 conjugate) (mouse); assay: ratio of particle fluorescence to film background fluorescence; labeled target at 10 nM, 2 h
[7] = biological target: mouse IgG labeled with Alexa Fluor 488 (Molecular Probes, Inc., A-11243 anti-biotin, mouse monoclonal 2F5, Alexa Fluor 488 conjugate) (mouse); assay: ratio of particle fluorescence to film background fluorescence; labeled target at 100 nM, 2 h
[8] = biological target: mouse IgG labeled with Alexa Fluor 488 (Molecular Probes, Inc., A-11243 anti-biotin, mouse monoclonal 2F5, Alexa Fluor 488 conjugate) (mouse); assay: net median particle fluorescence divided by that of the blank (0 nM) particles; labeled target at 1 nM, 2 h
[9] = biological target: mouse IgG labeled with Alexa Fluor 488 (Molecular Probes, Inc., A-11243 anti-biotin, mouse monoclonal 2F5, Alexa Fluor 488 conjugate) (mouse); assay: net median particle fluorescence divided by that of the blank (0 nM) particles; labeled target at 10 nM, 2 h
[10] = biological target: mouse IgG labeled with Alexa Fluor 488 (Molecular Probes, Inc., A-11243 anti-biotin, mouse monoclonal 2F5, Alexa Fluor 488 conjugate) (mouse); assay: net median particle fluorescence divided by that of the blank (0 nM) particles; labeled target at 100 nM, 2 h
[11] = biological target: mouse IgG labeled with Alexa Fluor 488 (Molecular Probes, Inc., A-11243 anti-biotin, mouse monoclonal 2F5, Alexa Fluor 488 conjugate) (mouse); assay: fluorescence imaging of film-immobilized capture particles, film background subtracted; labeled target at 1 nM, 2 h
[12] = biological target: mouse IgG labeled with Alexa Fluor 488 (Molecular Probes, Inc., A-11243 anti-biotin, mouse monoclonal 2F5, Alexa Fluor 488 conjugate) (mouse); assay: fluorescence imaging of film-immobilized capture particles, film background subtracted; labeled target at 10 nM, 2 h
[13] = biological target: mouse IgG labeled with Alexa Fluor 488 (Molecular Probes, Inc., A-11243 anti-biotin, mouse monoclonal 2F5, Alexa Fluor 488 conjugate) (mouse); assay: fluorescence imaging of film-immobilized capture particles, film background subtracted; labeled target at 100 nM, 2 h

**Q.** How did the detection level [1] turn out when “0.8-µm-diameter particles coated with goat-anti-mouse antibody” was run?
**A.** 1 pM

**Q.** Which Particle Fluorescence Rate, Average [2] does the source give for “goat anti-mouse IgG(Fc) coated particles, 3.2 µm in diameter (Spherotech, Inc., MPFc-30-5) (antibody)” here?
**A.** 29.6 cps

**Q.** What about the Particle Fluorescence Rate, Maximum [2] of the same substance?
**A.** 62.6 cps

**Q.** And the Particle Fluorescence Rate, Median [2]?
**A.** 28.1 cps

**Q.** What about the Particle Fluorescence Rate, Minimum [2] of the same substance?
**A.** 14.8 cps

**Q.** And the Particle Fluorescence Rate, Average [3]?
**A.** 44.5 cps

**Q.** What about the Particle Fluorescence Rate, Maximum [3] of the same substance?
**A.** 66.2 cps

**Q.** What about the Particle Fluorescence Rate, Median [3] of the same substance?
**A.** 46.4 cps

**Q.** And the Particle Fluorescence Rate, Minimum [3]?
**A.** 12 cps

**Q.** What about the Particle Fluorescence Rate, Average [4] of the same substance?
**A.** 50.7 cps

**Q.** And the Particle Fluorescence Rate, Maximum [4]?
**A.** 74.1 cps

**Q.** And the Particle Fluorescence Rate, Median [4]?
**A.** 50.8 cps

**Q.** And the Particle Fluorescence Rate, Minimum [4]?
**A.** 34.1 cps

**Q.** And the MPF/FBF [5]?
**A.** 5.97

**Q.** What about the MPF/FBF [6] of the same substance?
**A.** 7.45

**Q.** What about the MPF/FBF [7] of the same substance?
**A.** 6.41

**Q.** And the MPF/MPF0 [8]?
**A.** 58.2

**Q.** What about the MPF/MPF0 [9] of the same substance?
**A.** 99.5

**Q.** What about the MPF/MPF0 [10] of the same substance?
**A.** 107

**Q.** And the Net Median Particle Fluorescence, MPF [11]?
**A.** 23 cps

**Q.** And the Net Median Particle Fluorescence, MPF [12]?
**A.** 40 cps

**Q.** And the Net Median Particle Fluorescence, MPF [13]?
**A.** 43 cps
